From patent US20120003214A1
Numbering of substitutions follows the chain as printed. One block for each binder: values may come before it.

Experiments:
[1] = target: apical membrane antigen-1 (AMA1) of Plasmodium falciparum, strain 3D7 (Plasmodium falciparum); experiment: protein bioarray
[2] = target: apical membrane antigen-1 (AMA1) of Plasmodium falciparum, strain 3D7 (Plasmodium falciparum); experiment: biosensor, purified proteins
[3] = target: apical membrane antigen-1 (AMA1) of Plasmodium falciparum, strain 3D7 (Plasmodium falciparum); experiment: ELISA, biosensor and protein bioarray
[4] = target: apical membrane antigen-1 (AMA1) of Plasmodium falciparum, strain 3D7 (Plasmodium falciparum); experiment: not stated (screen of a random mutagenesis library against AMA1)

Kd [1]: 2.6 nM | fold better affinity than 12Y-2 [2]: 20 fold | fold better affinity than 14M-15 [3]: 2 fold
B1: VNAR 22A-2 (12Y-2 Thr39Ser; Pro90Leu) (VNAR)
VNAR: AWVDQTPRTATKETGESLTINCVLRDASFELKDTGWYRSKLGSTNEQSISIGGRYVETVNKGSKSFSLRISDLRVEDSGTYKCQAFYSLLLGDYNYSLLFRGEKGAGTALTVK

Kd [1]: 6.5 nM
B2: VNAR 14M-15 (12Y-2 Pro90Leu variant) (VNAR)
VNAR: B1 VNAR with S39T
fold enhanced affinity over the wild type 12Y-2 [4]: 10 fold

B3: VNAR 14M-8 (12Y-2 Phe100Leu) (VNAR)
VNAR: B1 VNAR with S39T, L90P, F100L
fold enhanced affinity over the wild type 12Y-2 [4]: 10 fold
